# T1: MdMYB1 (Malus domestica? (apple), UniProt A0SQ37 1-243)
# T1 sequence: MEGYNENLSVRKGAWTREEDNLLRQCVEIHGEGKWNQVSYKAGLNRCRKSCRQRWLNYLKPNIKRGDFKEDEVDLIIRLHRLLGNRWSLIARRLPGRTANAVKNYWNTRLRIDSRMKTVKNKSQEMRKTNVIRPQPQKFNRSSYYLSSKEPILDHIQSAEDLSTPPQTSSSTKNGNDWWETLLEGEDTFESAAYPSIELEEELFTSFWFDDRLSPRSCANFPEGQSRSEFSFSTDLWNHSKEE
# B1: MdGSTF6-probe (dsDNA)
# DNA 1: ATATCTAGTTGTAATCAACTGTTATGGCATAAATTG
# DNA 2: CAATTTATGCCATAACAGTTGATTACAACTAGATAT
# Biological target: T1, MdMYB1
# Assay: EMSA; LightShift Chemiluminescent EMSA Kit (Thermo); buffer, salt, pH and temperature not stated
# Conditions: protein: recombinant; tags: pET-32a fusion, His (Ni-agarose purified); blunt
binder,measurement,value
B1,binding result,binds
